The record followed here is patent US20200405759A1 (UCL BUSINESS, published 2020).

In this experiment the target is T1, human ROR1-Fz domain with Q(261)H and I(254)V (human, UniProt Q01973 165-299).
T1 construct: domain: Fz; it is not clear whether the construct was Fz only or a longer ROR1
The experiment is described as follows: antibody binding to point mutants of human ROR1, FIG. 7.

T1 sequence (Q01973 165-299 I254V/Q261H): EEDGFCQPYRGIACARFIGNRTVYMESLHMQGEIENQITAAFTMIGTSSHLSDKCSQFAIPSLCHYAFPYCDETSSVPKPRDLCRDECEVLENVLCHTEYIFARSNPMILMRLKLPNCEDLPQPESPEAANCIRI

B1: Clone F anti-ROR1 antibody (whole immunoglobulin) (antibody, V domains shown)
VH: EVQLVESGGGLVQPGRSLKLSCAASGFIFSEHNMAWVRQAPKKGLEWVATISDDGRNTYYRDSMRGRFTISRENARSTLYLQLDSLRSEDTATYYCASHRYNLFDSWGQGVMVTVSS
VL: DIQMTQSPSFLSASVGDRVTINCKASQNIDRYLNWYQQKLGEAPKRLLYNTNKLQTGIPSRFSGSGSATDFTLTISSLQPEDFATYFCLQYNSLPLTFGSGTKLEIK
notes: Rat variable domains; also called clone F antibody
Consider B1, for which the binding result is “no binding”.
